B1: Rho-related GTP-binding protein RhoE (Mus musculus), P61588 (parent)
chain: MKERRASQKLSSKSIMDPNQNVKCKIVVVGDSQCGKTALLHVFAKDCFPENYVPTVFENYTASFEIDTQRIELSLWDTSGSPYYDNVRPLSYPDSDAVLICFDISRPETLDSVLKKWKGEIQEFCPNTKMLLVGCKSDLRTDVSTLVELSNHRQTPVSYDQGANMAKQIGAATYIECSALQSENSVRDIFHVATLACVNKTNKNVKRNKSQRATKRISHMPSRPELSAVATDLRKDKAKSCTVM

Variants of: B1
Conditions: with 1433b_human YWHAB

effect of a mutation on the interaction | Variant
disrupting interaction strength | S210A;T214A;S218A

Variants of: B1
Conditions: with rhg05_human ARHGAP5, Q13017
Sequence of rhg05_human ARHGAP5, Q13017 (Q13017 whole entry): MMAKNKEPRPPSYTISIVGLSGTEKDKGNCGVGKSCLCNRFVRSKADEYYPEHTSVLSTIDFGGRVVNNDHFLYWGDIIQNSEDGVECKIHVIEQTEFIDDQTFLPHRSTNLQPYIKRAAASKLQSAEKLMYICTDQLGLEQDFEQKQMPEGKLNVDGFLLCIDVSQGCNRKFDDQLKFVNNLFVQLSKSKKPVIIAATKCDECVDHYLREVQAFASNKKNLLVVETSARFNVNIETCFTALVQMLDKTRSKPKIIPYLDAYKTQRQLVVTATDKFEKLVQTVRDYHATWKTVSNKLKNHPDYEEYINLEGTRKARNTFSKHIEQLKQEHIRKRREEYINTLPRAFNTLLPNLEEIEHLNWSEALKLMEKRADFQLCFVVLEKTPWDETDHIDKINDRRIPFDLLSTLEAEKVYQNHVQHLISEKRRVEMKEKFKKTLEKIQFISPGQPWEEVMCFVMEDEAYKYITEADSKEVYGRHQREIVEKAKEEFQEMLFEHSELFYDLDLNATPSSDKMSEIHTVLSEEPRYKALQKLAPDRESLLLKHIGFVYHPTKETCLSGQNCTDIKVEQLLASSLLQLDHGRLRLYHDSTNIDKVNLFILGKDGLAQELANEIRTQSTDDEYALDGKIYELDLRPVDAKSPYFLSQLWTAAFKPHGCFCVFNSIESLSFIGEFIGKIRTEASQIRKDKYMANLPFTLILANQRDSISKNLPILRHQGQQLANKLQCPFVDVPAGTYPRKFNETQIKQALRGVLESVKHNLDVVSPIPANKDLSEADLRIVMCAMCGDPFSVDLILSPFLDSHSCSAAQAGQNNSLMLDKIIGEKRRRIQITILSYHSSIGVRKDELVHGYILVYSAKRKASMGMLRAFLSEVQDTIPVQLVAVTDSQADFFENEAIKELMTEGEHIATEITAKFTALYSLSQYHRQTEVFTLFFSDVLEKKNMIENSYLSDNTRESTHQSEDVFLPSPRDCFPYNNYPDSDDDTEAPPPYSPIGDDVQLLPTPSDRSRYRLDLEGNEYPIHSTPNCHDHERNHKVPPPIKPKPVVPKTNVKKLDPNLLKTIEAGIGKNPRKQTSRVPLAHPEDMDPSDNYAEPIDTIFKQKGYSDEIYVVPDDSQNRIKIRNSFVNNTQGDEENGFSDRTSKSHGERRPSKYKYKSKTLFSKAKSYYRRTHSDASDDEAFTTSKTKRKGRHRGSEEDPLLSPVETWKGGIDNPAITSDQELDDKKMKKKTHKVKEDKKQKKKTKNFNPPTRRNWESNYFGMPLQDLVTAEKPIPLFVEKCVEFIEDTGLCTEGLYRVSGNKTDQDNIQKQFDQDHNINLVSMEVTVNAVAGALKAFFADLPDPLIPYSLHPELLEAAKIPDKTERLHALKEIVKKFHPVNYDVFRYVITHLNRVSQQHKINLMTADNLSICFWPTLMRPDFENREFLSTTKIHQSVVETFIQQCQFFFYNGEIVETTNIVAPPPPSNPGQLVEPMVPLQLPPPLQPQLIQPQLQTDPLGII

effect of a mutation on the interaction | Variant
disrupting interaction strength | T55V

Variants of: B1
Conditions: with 1433b_human YWHAB
Remark: another data set of the same source

effect of a mutation on the interaction | Variant
disrupting interaction strength | S7A;S11A;S210A;T214A;S218A;S222A;S240A

— IntAct's records for PubMed 23622247
